Measurements published in doi:10.1101/2020.09.01.277368 (bioRxiv, 2020).
Where “and” joins values, the source holds several entries; their conditions need not be identical. Equal entries are not always repeated.

Target: the molecule itself
Assay: AUC; sedimentation velocity (SV-AUC); MetA at 10, 20 and 30 µM in 20 mM Tris-Cl pH 7.5, 150 mM NaCl; 40,000 rpm; absorbance at 280 nm; SEDFIT continuous c(s) distribution; monomer, dimer and tetramer peaks, populations unchanged at the three concentrations

B1: homoserine acetyl transferase MetA (Rv3341) of Mycobacterium tuberculosis, recombinant histidine-tagged (enzyme)
chain: MTISDVPTQTLPAEGEIGLIDVGSLQLESGAVIDDVCIAVQRWGKLSPARDNVVVVLHALTGDSHITGPAGPGHPTPGWWDGVAGPGAPIDTTRWCAVATNVLGGCRGSTGPSSLARDGKPWGSRFPLISIRDQVQADVAALAALGITEVAAVVGGSMGGARALEWVVGYPDRVRAGLLLAVGARATADQIGTQTTQIAAIKADPDWQSGDYHETGRAPDAGLRLARRFAHLTYRGEIELDTRFANHNQGNEDPTAGGRYAVQSYLEHQGDKLLSRFDAGSYVILTEALNSHDVGRGRGGVSAALRACPVPVVVGGITSDRLYPLRLQQELADLLPGCAGLRVVESVYGHDGFLVETEAVGELIRQTLGLADREGACRR
notes: also called HSAT; (His)6-Rv3341
For B1, which “stoichiometry N” value is on record?
Its value is 2 and 4.
